Data published in patent US20230295297A1.

Key:
[1] = target: recombinant human TREM2-DAP12 fusion protein expressed on cells (human); experiment: cell-based or functional assay
[2] = target: T1, mouse TREM2 on cells (mouse), Q99NH8; experiment: KD cell binding
T1 chain: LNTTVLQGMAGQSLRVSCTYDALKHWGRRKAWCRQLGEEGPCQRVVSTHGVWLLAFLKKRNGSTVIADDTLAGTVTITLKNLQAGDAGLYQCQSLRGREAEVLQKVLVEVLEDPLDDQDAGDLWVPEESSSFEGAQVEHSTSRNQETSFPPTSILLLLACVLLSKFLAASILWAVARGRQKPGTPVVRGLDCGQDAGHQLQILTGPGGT

[3] = target: T1, mouse TREM2 on cells (mouse), Q99NH8; experiment: FACS, BWZmT2 cells
[4] = target: T1, mouse TREM2 on cells (mouse), Q99NH8; experiment: cell-based or functional assay
[5] = target: T1, mouse TREM2 on cells (mouse), Q99NH8; experiment: FACS, WT mouse macrophages
[6] = target: TREM2 protein of the 'Percent APOE binding' column of Table 9B; experiment: TREM2 binding to APOE with antibody; assay not described for this table

Chain of recombinant human TREM2-DAP12 fusion protein expressed on cells (human) (chain, as listed by the source limits assumed, form in doubt): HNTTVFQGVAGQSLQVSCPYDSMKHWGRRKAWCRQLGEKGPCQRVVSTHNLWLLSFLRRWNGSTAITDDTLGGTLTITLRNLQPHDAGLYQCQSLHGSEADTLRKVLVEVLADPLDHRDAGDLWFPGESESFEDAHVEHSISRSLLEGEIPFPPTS

B1: 9F5 (antibody, IgG1, V domains shown)
VL: DVVMTQTPLSLPVSLGDQASISCRSSQSLVHSNGYTYLHWYLQKPGQSPKLLIYKVSNRFSGVPDRFSGSGSGTDFTLKISRVEADDLGVYFCSQSTRVPYTFGGGTKLEIK
VH: QVQLQQSGPELVKPGASLKISCKASGYAFSSSWMNWVKQRPGKGLEWIGRIYPGDGDTNYNGEFRVRATLTADTSSTTAYMQLSSLTSEDSAVYFCARLLRNQPGESYAMDYWGQGASVTVSS
**Q.** What does the source list for B1?
**A.** BWZhT2 LUC Plate-bound (FOB) [1]: 2.48 FOB; BWZhT2 LUC Solution (FOB) [1]: 1.75 FOB; BWZhT2 LUC Solution + PS (Δ Bmax) [1]: 2930

B2: 9G1 (antibody, IgG1, V domains shown)
VL: DVLMTQTPLSLPVSLGDQASISCRFSQSLVHSNGNTYLHWYLQKPGQSPKLLIYKVSNRFSGVPDRFSGSGSGTDFTLRISGVEAEDLGVYFCSQSTRVPPTFGGGTKLEIK
VH: QVQLQQSGAELVKPGASVKLSCKASGYIFTTYWIHWVKQRPGRGPEWIGRIDPNNGDTNYNEKFKTKATLTVDKPSSTADMQLSSLTSEDSAVYYCVMTGTDFDYWGQGTTLTVSS
**Q.** Which results are given for B2?
**A.** BWZhT2 LUC Plate-bound (FOB) [1]: 1.59 FOB; BWZhT2 LUC Solution (FOB) [1]: 1.07 FOB; BWZhT2 LUC Solution + PS (Δ Bmax) [1]: 2660

B3: 6H2 (antibody, IgG2a, V domains shown)
VL: DVLMTQTPLSLPVSLGDQASISCRSSQSIVHSNGNTYLEWYLQKPGQSPKLLIYKVSNRFSGVPDRFSGSGSGTDFTLKISRVEAEDLGVYYCFQGSHVPFTFGSGTKLEIK
VH: QVQLQESGPGLVQPSQSLSIICTVSAFSLTNYAVHWIRQSPGKGLEWLGVIWSGGSTAFNAAFISRLNISKDNSKSQVFFKMNSLQSDDTAIYYCATHYYRSTYAFSYWGQGTLVTVSA
**Q.** With B3 as the binder, how does the BWZhT2 LUC Plate-bound (FOB) [1] read?
**A.** 1.1 FOB

**Q.** What about the BWZhT2 LUC Solution (FOB) [1] of the same binder?
**A.** 3.6 FOB

**Q.** And the BWZhT2 LUC Solution + PS (Δ Bmax) [1]?
**A.** -40200

B4: 10A9 (antibody, IgG1, V domains shown)
VL: DVVMTQTPLSLPVSLGDQASISCRSSQTIIHSNGNTYLEWYLRKPGQSPKLLIYKVSNRFCGVPDRFSGSGSGTDFTLKISRVEAEDLGVYYCFQGSHVPYTFGGGTELEIK
VH: QVQLQQSGAEVVKPGASVKMSCKTSGYPFSNFWITWVKQRPGQGLVWIGDIYPGSDNRNFNERFKTKATLTVDTSSSTAYMHLSSLTSEDSAVYFCAREAYYTNPGFAYWGQGTLVTVSA
**Q.** With B4 as the binder, how does the BWZhT2 LUC Plate-bound (FOB) [1] read?
**A.** 2.18 FOB

**Q.** What about the BWZhT2 LUC Solution (FOB) [1] of the same binder?
**A.** 0.31 FOB

B5: 3A2 (antibody, IgG1, V domains shown)
VL: DVVMTQTPLSLPVSLGDQASISCRSSQTIIHSNGNTYLEWYLRKPGQSPKLLIYKVSNRFSGVPDRFSGSGSGTDFTLKISRVEAEDLGVYYCFQGSHVPYTFGGGTELEIK
VH: QVQLQQSGAELVKPGASVKMSCKTSGYPFSNFWITWVKQRPGQGLVWIGDIYPGSDNSNYNEKFKTKATLTVDTSSSTAYMHLSSLTSEDSAVYFCAREAYYTNPGFAYWGQGTLVTVST
**Q.** Which BWZhT2 LUC Plate-bound (FOB) [1] does the source give for B5 here?
**A.** 1.07 FOB

**Q.** And the BWZhT2 LUC Solution (FOB) [1]?
**A.** 0.32 FOB

B6: 3A7 (antibody, IgG1, V domains shown)
VL: not shown
VH: EVKLEESGGGLVQPGGSMKLSCAASGFTFSDAWMGWVRQSPEKGLEWVAEIRDKVKNHATYYAESVKGRFTISRDDSKSTVYLQMNTLRADDTGIYYCRLGVFDYWGQGTTLTVSS
modifications: not checked
**Q.** B6 was tested. Which Kd [2] did it give?
**A.** 5.86 nM

**Q.** What about the MFI BWZmT2 [3] of the same binder?
**A.** 2870 MFI

**Q.** What about the BWZmT2 LUC Plate-bound (FOB) [4] of the same binder?
**A.** 7.8 FOB

**Q.** What about the BWZmT2 LUC Solution (FOB) [4] of the same binder?
**A.** 7.18 FOB

**Q.** What about the decrease in cell surface level of TREM2 on BMDM (FACS) [4] of the same binder?
**A.** 58%

**Q.** And the % Positive WT BMMACS [5]?
**A.** 26.3%

**Q.** And the Percent APOE binding [6]?
**A.** 92.3%

B7: 8A1 (antibody, IgG2a, V domains shown)
VL: DIQMTQSPASLSVSVGETVTITCRTSENVYSNLAWYQQKQGKSPQLLVYAATNLADGVPSRFSASGSATQFSLKINSLQSADFGSYYCHHFWGTPYTFGGGTKLEMN
VH: EVQLQQSGAELVKPGASVKISCKASGYAFSNYWMSWVKQRPGKGLEWIGQIYPGDGDTKYNGKFEGKATLTADKSSSTAYMQLSSLTSEDSAVYFCSREKGADYYGSTYSAWFSYWGQGTLVTVSA
**Q.** Which BWZhT2 LUC Plate-bound (FOB) [1] does the source give for B7 here?
**A.** 5.46 FOB

**Q.** And the BWZhT2 LUC Solution (FOB) [1]?
**A.** 0.35 FOB
